This passage reports specific activity and Km results from patent US7625734B2, “Glutamine:fructose-6-phosphate amidotransferase (GFAT) comprising an internal purification marker and use thereof for the screening of compounds” (Centre National de la Recherche Scientifique (CNRS), priority 2003, dated 2009).

Data set [1] has as its target T1, GFAT activity (Homo sapiens, UniProt Q06210, INS317HHHHHH).
T1 construct: made in house; host or cells: Sf9 insect cells (recombinant baculovirus)
Description: Morgan-Elson assay of GFAT1-His6 enzyme activity. Type of data set: biochemical. The following applies: 30 minutes at 37° C.; D-glucosamine standard curve. Here is the method:
In this case the enzyme activity is monitored by a colorimetric test the principle of which is the following: the D-glucosamine-6P released by the enzyme is N-acetylated by acetic anhydride in alkaline medium (Ghosh et al., Method. Enzymol. (1962) 5:414), then the solution is treated with Ehrlich's reagent (para-dimethyl-amino-benzaldehyde, PDAB) in concentrated acid medium; the pink compound formed absorbs at 585 nm.
The enzymatic reaction takes place over 30 minutes at 37° C. in the presence of: • 0.2 ml of 100 mM fructose-6P • 0.25 ml of 60 mM L-Glutamine • 0.25 ml of 150 mM KPO4 buffer, pH 7 • 0.1 ml of 25 mM EDTA (ethylene diamine tetra-acetate), pH 7 • up to 200 μl of sample (to be completed with H2O if necessary)
The reaction is stopped by immersion for 4 minutes in a water bath at 100° C. then centrifuged. […]
The activity of the GFAT was determined by comparison with a standard curve established using D-glucosamine as standard in a concentration range of 0 to 200 nmoles. The specific activity of the GFAT1-His6 obtained was thus measured at 1.7 U/mg. […]

Data set [2] concerns the target T1, GFAT activity. Description: APAD assay (spectrophotometric assay coupled with glutamate dehydrogenase). The data set is classed as biochemical. On the procedure:
The kinetic parameters of GFAT1-His6 have been characterized vis-à-vis glutamine (Km^Gln=0.2 mM) and fructose-6P (F6P) (Km^F6P=0.006 mM) by a spectrophotometric assay coupled with glutamate dehydrogenase according to the APAD test. This is in accordance with the values cited in the prior art (Km^Gln=0.26 mM and Km^F6P=0.007 mM for Broschat et al., J. Biol. Chem. (2002) 277:14764).
This is an ultraviolet spectrophotometric assay of the GFAT activity. It is based on the continuous determination of the quantity of L-glutamate formed using GFAT and an analogue of NAD (nicotinamide adenine dinucleotide), APAD (3-acetylpyridine adenine dinucleotide), according to the following reaction (catalyzed by glutamate dehydrogenase (GDH)):
The measurement is carried out at 365 nm, at 37° C. Under these conditions an absorbance unit corresponds to 0.11 μmole of APADH formed.
The test comprises: • 100 μl 3 mM APAD (2 mg/ml) • 25 μl 2M KCl • 100 μl of 1 M KPO4 buffer, pH 7.2 • 100 μl of 100 mM Fructose-6P (30.41 mg/ml) • 100 μl of 60 mM purified L-Glutamine (8.77 mg/ml) • H2O qsf 1 ml (taking into account the volumes to be added hereafter) • 50 μl GDH • sample to be assayed: 0.5 μg

In data set [3] the test system is GFAT activity. The settings on record: value obtained by Broschat et al., J. Biol. Chem. (2002) 277:14764; cited from earlier work.

Like-named read-outs stand apart in the source and are kept apart here.

T1 sequence (Q06210 with tags, fused parts or gaps isoform Q06210-2 INS299HHHHHH): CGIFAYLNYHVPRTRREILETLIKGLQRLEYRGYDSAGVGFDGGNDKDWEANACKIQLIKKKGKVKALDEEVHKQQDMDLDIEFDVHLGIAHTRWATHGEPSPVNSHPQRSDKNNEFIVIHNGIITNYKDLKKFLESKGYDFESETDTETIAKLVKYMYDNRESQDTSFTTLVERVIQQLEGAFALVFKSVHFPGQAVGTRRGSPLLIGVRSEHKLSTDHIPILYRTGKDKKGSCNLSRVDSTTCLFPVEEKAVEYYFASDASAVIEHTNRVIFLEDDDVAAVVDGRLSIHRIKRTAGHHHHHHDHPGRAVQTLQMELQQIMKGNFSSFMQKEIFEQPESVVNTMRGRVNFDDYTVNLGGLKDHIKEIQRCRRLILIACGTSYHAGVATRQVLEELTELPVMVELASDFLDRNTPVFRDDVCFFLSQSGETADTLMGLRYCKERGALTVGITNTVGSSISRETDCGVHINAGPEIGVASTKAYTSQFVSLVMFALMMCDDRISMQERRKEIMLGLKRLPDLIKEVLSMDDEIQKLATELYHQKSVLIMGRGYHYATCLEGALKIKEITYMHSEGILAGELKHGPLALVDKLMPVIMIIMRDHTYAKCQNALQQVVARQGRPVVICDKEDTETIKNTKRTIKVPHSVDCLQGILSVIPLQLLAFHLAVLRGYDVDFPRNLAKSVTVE

B1: GFAT1-His6: human GFAT1 (SEQ ID NO: 2) in which a hexa-histidine purification tag is inserted between amino acids 299 and 300 (protein, UniProt Q06210 2-699, looked up)
Glutamine--fructose-6-phosphat …: CGIFAYLNYHVPRTRREILETLIKGLQRLEYRGYDSAGVGFDGGNDKDWEANACKIQLIKKKGKVKALDEEVHKQQDMDLDIEFDVHLGIAHTRWATHGEPSPVNSHPQRSDKNNEFIVIHNGIITNYKDLKKFLESKGYDFESETDTETIAKLVKYMYDNRESQDTSFTTLVERVIQQLEGAFALVFKSVHFPGQAVGTRRGSPLLIGVRSEHKLSTDHIPILYRTARTQIGSKFTRWGSQGERGKDKKGSCNLSRVDSTTCLFPVEEKAVEYYFASDASAVIEHTNRVIFLEDDDVAAVVDGRLSIHRIKRTAGDHPGRAVQTLQMELQQIMKGNFSSFMQKEIFEQPESVVNTMRGRVNFDDYTVNLGGLKDHIKEIQRCRRLILIACGTSYHAGVATRQVLEELTELPVMVELASDFLDRNTPVFRDDVCFFLSQSGETADTLMGLRYCKERGALTVGITNTVGSSISRETDCGVHINAGPEIGVASTKAYTSQFVSLVMFALMMCDDRISMQERRKEIMLGLKRLPDLIKEVLSMDDEIQKLATELYHQKSVLIMGRGYHYATCLEGALKIKEITYMHSEGILAGELKHGPLALVDKLMPVIMIIMRDHTYAKCQNALQQVVARQGRPVVICDKEDTETIKNTKRTIKVPHSVDCLQGILSVIPLQLLAFHLAVLRGYDVDFPRNLAKSVTVE
modifications: internal His6 tag
What is called Km is the substrate concentration at which the rate is half of its maximum. Turning to B1, the specific activity with GFAT activity [1] turned out to be 1.7 U/mg. Moreover, the Km with GFAT activity [2] (vis-à-vis fructose-6P, read-out: Km F6P) was found to be 6 µM; with GFAT activity [2] (vis-à-vis glutamine, read-out: Km Gln) it was 200 µM.

B2: recombinant human GFAT1: recombinant human GFAT1 purified by Broschat et al., J. Biol. Chem. (2002) 277:14764 (protein, UniProt Q06210 2-699, looked up)
Glutamine--fructose-6-phosphat …: CGIFAYLNYHVPRTRREILETLIKGLQRLEYRGYDSAGVGFDGGNDKDWEANACKIQLIKKKGKVKALDEEVHKQQDMDLDIEFDVHLGIAHTRWATHGEPSPVNSHPQRSDKNNEFIVIHNGIITNYKDLKKFLESKGYDFESETDTETIAKLVKYMYDNRESQDTSFTTLVERVIQQLEGAFALVFKSVHFPGQAVGTRRGSPLLIGVRSEHKLSTDHIPILYRTARTQIGSKFTRWGSQGERGKDKKGSCNLSRVDSTTCLFPVEEKAVEYYFASDASAVIEHTNRVIFLEDDDVAAVVDGRLSIHRIKRTAGDHPGRAVQTLQMELQQIMKGNFSSFMQKEIFEQPESVVNTMRGRVNFDDYTVNLGGLKDHIKEIQRCRRLILIACGTSYHAGVATRQVLEELTELPVMVELASDFLDRNTPVFRDDVCFFLSQSGETADTLMGLRYCKERGALTVGITNTVGSSISRETDCGVHINAGPEIGVASTKAYTSQFVSLVMFALMMCDDRISMQERRKEIMLGLKRLPDLIKEVLSMDDEIQKLATELYHQKSVLIMGRGYHYATCLEGALKIKEITYMHSEGILAGELKHGPLALVDKLMPVIMIIMRDHTYAKCQNALQQVVARQGRPVVICDKEDTETIKNTKRTIKVPHSVDCLQGILSVIPLQLLAFHLAVLRGYDVDFPRNLAKSVTVE
Turning to B2, the specific activity in the data set with GFAT activity [3] is 0.4 U/mg.
